Data reported in patent publication US20160333075A1 (MAB EXPLORATIONS SDN BHD, published 2016).
Numbering of substitutions follows the chain as printed.

B1: Recombinant chimeric E18 VL + VH (antibody, V domains shown)
VH: QIQLVQSGPELKKPGETVKISCKASGYTFTRYGMSWVKQAPGKGLKWMGWINTYSGVPTYADDFKGRFAFSLETSASTAYLQINNLKNEDTATYFCARRGYSNYYPMDFWGQGTSVTVSS
VL: DIKMTQSPSSMYASLGERVTITCKASQDIKSYLSWYQQKPWKSPKTLIYYAKNLADGVPSRFSGSGFGQDYSLTISSLESDDTATYYCLQHGESPYTFGSGTKLEIKR
B2: hVL1 + hVH1 E19 (antibody, V domains shown)
VH: DVQLQESGPGLVKPSQTLSLTCTVSGYSITSGFYLNWIRQHPCKGLEWIGYINYGGSINYNPSLKSRVTISRDTSKNQFSLKLSSVTAADTAVYYCATMPNSWYFDVWGRGTLVTVSS
VL: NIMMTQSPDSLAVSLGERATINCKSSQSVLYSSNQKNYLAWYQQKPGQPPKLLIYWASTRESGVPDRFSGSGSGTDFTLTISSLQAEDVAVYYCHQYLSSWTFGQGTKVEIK
B3: hVL1 + hVH2 E19 (antibody, V domains shown)
VH: B2 VH with C43G, G45K, R110T
VL: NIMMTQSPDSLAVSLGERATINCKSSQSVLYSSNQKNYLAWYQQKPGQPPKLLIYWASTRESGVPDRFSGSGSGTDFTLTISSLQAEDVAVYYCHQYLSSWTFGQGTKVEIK
B4: hVL1 + hVH3 E19 (antibody, V domains shown)
VH: B2 VH with D1E, Q5V, I38V, C43G, G45K, T69S, S84T, R110T
VL: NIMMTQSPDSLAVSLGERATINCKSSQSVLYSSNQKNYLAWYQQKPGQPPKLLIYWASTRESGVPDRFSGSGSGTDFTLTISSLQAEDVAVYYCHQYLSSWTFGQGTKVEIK
B5: Recombinant chimeric E20 VL + VH (antibody, V domains shown)
VH: EVQLVESGGGLVKPGGSLKLSCAASGFTFNIYAMSWVRQTPEKRLEWVATISDGGSYTYYPDNVKGRFTISRDNAKNNLYLQMSHLKSEDTAMYYCVRDRGNYYSRAFPYAYWGQGTLVTVSA
VL: SIVMTQTPKFLPVSAGDRVTMTCKASQSVGNNVAWYQQKSGQSPKLLIYYASNRYTGVPDRFTGSGSGTDFTFTISSVQVEDLAVYFCQQHYSSPPTFGAGTKLELK

Columns and labels:
Assay in all cases: cell-based or functional assay
[1] = biological target: enterovirus 71 (EV71) virions (enterovirus 71)
[2] = biological target: enterovirus 71 (EV71) virions (enterovirus 71); remark: listed apart in the source
[3] = biological target: enterovirus 71 (EV71) virions (enterovirus 71); remark: listed apart in the source

Binder | IC50 in ATCC cells relative to the parental antibody [1] | IC50 in NIBSC cells relative to the parental mouse antibody [1] | Inhibitory concentration 50 (IC50), Vero ATCC [2] | Inhibitory concentration 50 (IC50), Vero NIBSC [2] | end point PRNT50, Vero ATCC [2] | end point PRNT50, Vero NIBSC [2] | Average IC50 [3] | IC50 (#1) [3] | IC50 (#2) [3]
B1 | ~2 fold | ~5 fold | 0.585 µg/mL | 0.966 µg/mL | 625 ng/mL | 2500 ng/mL | – | – | –
B2 | – | – | – | – | – | – | 0.0892 µg/mL | 0.0565 µg/mL | 0.122 µg/mL
B3 | – | – | – | – | – | – | 0.119 µg/mL | 0.118 µg/mL | 0.121 µg/mL
B4 | – | – | – | – | – | – | 0.0896 µg/mL | 0.0965 µg/mL | 0.0826 µg/mL
B5 | – | – | 3.18 µg/mL | – | 5000 ng/mL | > 10000 ng/mL | – | – | –
